Here are results for one molecule from article PMC7239026, “PepO is a target of the two-component systems VicRK and CovR required for systemic virulence of Streptococcus mutans” (Virulence, 2020).

Assay [1] deals with T1, human complement protein C1q (human, UniProt P02745 23-245; P02746 28-253; P02747 29-245).
T1 construct: Complement C1q subcomponent subunit A, human; Complement C1q subcomponent subunit B, human; Complement C1q subcomponent subunit C, human; Named only as a whole; source: bought: Calbiochem
T1 sequence (P02745 23-245, chain 1 of 3): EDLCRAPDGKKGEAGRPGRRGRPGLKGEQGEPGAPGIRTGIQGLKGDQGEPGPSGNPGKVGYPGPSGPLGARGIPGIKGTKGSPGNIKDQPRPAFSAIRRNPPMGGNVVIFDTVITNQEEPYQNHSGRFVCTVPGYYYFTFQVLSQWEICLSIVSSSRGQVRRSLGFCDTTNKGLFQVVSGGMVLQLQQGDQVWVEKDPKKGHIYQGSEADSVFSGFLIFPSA
T1 sequence (P02746 28-253, chain 2 of 3): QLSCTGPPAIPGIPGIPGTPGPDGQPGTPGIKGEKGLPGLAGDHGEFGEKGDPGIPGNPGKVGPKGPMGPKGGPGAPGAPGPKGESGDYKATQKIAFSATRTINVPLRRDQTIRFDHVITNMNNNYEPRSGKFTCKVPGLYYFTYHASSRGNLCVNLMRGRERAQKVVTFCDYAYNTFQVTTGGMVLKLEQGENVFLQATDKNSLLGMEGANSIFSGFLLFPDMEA
T1 sequence (P02747 29-245, chain 3 of 3): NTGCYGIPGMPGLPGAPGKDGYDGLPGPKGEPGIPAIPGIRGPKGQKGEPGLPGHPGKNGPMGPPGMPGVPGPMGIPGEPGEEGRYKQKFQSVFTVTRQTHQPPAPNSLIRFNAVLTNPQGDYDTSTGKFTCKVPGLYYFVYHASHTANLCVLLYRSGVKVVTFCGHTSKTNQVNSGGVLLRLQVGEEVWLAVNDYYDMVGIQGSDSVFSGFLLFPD
The assay can be described thus: ELISA; human glycoproteins coated on 96-well plates (5 ug/mL in 75 mM sodium carbonate buffer pH 9.6, 18 h at 4°C); blocked with 3% fish gelatin; rPepO (10 to 50 ug/mL) or rCnmA (0.125 to 2 ug/mL) in 50 mM HEPES pH 7.4, 150 mM NaCl, 2 mM CaCl2, 50 ug/mL BSA, 2 h at 37°C; bound protein detected with rabbit antiserum and peroxidase conjugate, A450 nm; wells with 1% BSA as control. The settings on record: both partners purified.

The target of assay [2] is T2, human C4b-binding protein (C4BP) (human, UniProt P04003 49-597; P20851 18-252).
T2 construct: Named only as a whole ('a multimeric glycoprotein'); source: bought: Athens Research & Technology
T2 sequence (looked up) 1: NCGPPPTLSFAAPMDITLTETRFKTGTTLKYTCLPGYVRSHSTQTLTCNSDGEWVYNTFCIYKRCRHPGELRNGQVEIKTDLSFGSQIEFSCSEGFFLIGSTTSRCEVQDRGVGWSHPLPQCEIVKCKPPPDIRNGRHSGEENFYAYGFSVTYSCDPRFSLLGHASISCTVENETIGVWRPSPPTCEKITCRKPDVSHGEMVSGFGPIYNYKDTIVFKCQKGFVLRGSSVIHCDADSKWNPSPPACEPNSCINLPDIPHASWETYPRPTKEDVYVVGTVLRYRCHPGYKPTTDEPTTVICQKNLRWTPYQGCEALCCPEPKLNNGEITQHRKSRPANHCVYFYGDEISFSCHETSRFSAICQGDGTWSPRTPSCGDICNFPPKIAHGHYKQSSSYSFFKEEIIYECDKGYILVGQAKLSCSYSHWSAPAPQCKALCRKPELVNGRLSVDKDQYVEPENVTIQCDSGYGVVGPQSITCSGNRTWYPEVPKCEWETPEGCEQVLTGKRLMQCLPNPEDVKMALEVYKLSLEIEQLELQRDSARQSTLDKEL
T2 sequence (looked up) 2: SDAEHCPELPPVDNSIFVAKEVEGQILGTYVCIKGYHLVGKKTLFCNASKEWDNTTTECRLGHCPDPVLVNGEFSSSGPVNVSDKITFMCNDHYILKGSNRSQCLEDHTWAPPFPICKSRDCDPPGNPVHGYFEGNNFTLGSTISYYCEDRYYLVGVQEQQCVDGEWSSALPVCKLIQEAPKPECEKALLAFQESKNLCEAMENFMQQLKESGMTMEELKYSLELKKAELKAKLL
Described as above. The settings on record: both partners purified.

B1: His-tagged PepO recombinant protein (rPepO), endopeptidase O of Streptococcus mutans (natural protein)
chain: MVRLQDDFYNAVNGQWEEAAVIPDDKPRTGGFSDLADDIEDLMLETTDKWLDGKDVPDDSILQNFVKFHRQVADYDAREETGVKPVLPLIEEYKSLTSFADFASNIATYEMAGKPNELPFGVAPDFMNAQMNVLWAEAPNLILPDTTYYAEGNDKGKELLAKWRTMQEELLPKFGFEEAEIKDLLDKVLTLDAKLAQYVLSSEESSEYVKLYHPYDWADFTKLTPELPLDAIFTQILGQKPDKVIVPEERFWTNFAAEFYSEKNWPFLKATLVLAAASSYNSYLTDDIRILSGSYNRALSGTPQAMGKKKAAFYLAQGPYNQALGLWYAGEKFSPEAKKDVEAKVATMIEVYKERLHKTDWLAQETRNKAITKLNVITPHIGYPEQLPKTYAQKIIDDNLSLVENAQNLAKISIAYNWSKWNQPVDRSEWHMPAHMVNAYYDPQQNQIVFPAAILQAPFYSLEQSSSANYGGIGAVIAHEISHAFDTNGASFDENGSLNNWWTDEDYAAFKKRTDRVVEQFEGLDSYGAKVNGQLTVSENVADLGGLACALEAAKREADFSVRDFFINFATIWRMKARDEYMQMLASIDVHAPAKWRTNVTITNFDEFHQEFAVKEGDGMWRDEDKRVIIW
notes: PepO (endopeptidase O) of Streptococcus mutans strain UA159; entire PepO coding region (1896 bp) amplified from UA159 genomic DNA and cloned into pET-16B; Vector pET-16B; also called full-length PepO; source: E. coli BL21, purified under native conditions (Ni-NTA), dialyzed in PBS
Turning to B1, the binding result in assay [1] and in assay [2] was “binds” in each case.
